Target: T1, mouse serum albumin (mouse, UniProt P07724 25-608)
T1 construct: also called Mouse albumin
Experiment: SPR Biacore 3000; mouse albumin against human/rhesus albumin as reference

T1 sequence (P07724 25-608 limits assumed): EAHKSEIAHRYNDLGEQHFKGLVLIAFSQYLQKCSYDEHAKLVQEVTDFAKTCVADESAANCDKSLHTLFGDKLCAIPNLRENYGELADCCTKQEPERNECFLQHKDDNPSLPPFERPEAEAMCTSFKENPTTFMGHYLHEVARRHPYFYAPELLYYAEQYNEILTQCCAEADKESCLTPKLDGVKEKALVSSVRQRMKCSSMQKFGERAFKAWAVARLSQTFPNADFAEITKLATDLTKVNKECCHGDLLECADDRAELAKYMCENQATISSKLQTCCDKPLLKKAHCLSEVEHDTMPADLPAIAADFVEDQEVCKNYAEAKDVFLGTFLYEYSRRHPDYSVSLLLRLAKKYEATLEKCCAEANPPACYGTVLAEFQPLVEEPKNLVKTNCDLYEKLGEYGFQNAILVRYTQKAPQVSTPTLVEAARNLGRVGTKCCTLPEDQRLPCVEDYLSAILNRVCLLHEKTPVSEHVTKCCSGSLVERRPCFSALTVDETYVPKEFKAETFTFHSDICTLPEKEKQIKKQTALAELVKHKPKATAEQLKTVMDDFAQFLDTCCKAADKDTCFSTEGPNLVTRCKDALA

B1: PMP6A8 (ALB2) (VHH)
VHH: AVQLVESGGGLVQGGGSLRLACAASERIFDLNLMGWYRQGPGNERELVATCITVGDSTNYADSVKGRFTISMDYTKQTVYLHMNSLRPEDTGLYYCKIRRTWHSELWGQGTQVTVSS
factor of difference in affinity for human/rhesus versus mouse serum albumin: 400 fold
